Data taken from publication PMC5269676 (Scientific Reports, 2017).

T1: Kelch domain of Keap1
T1 construct: Cloned into pET-28a in frame with an N-terminal His tag and a TEV protease cleavage site; stored in 20 mM Tris pH 7.5, 5 mM DTT; source: E. coli BL21 (DE3), purified (Ni-NTA, His tag cut off, Ni-NTA flow-through, Superdex 75, if necessary Mono Q); not shown: His tag, N-terminal, cleaved
T1 chain: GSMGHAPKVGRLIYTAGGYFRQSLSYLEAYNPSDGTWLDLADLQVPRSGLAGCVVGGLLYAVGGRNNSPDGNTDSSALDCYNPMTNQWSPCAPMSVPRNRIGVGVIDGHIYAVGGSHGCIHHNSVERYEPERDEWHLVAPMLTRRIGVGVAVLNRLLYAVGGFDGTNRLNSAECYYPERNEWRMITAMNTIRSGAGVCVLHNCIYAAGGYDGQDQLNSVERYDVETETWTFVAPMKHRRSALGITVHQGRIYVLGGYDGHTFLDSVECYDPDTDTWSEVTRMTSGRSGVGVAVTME


Key:
Keap1 [1] = target: Keap1 (Homo sapiens)
Keap1 [2] = target: T2, Keap1 (Homo sapiens); test: not stated; potency of LS146-scFv against its Fab form (Supplementary Fig. S6)
T2 construct: Keap1, BTB-Kelch substrate adaptor protein; the crystallised construct is in PDB 5F72; source: recombinant, purified (procedures in Supplementary Methods)

Kelch domain of Keap1 = target: T1, Kelch domain of Keap1; test: SPR; Biacore competition assay; concentration of LS146-scFv varied, percent inhibition fitted to a variable slope model; what was immobilised is not told; conditions: both partners purified

binding result (Keap1 [1]) | Binder | further results
binds | G54 (antibody, V domains shown) VH: EVQLVESGGGLVQPGGSLRLSCAASGFAISASSIHWVRQAPGKGLEWVASISPETGETYYADSVAGRFTISADTSKNTAYLQMNSLRAEDTAVYYCARQGYAARSGAGFDYWGQGTLVTVSS VL: DIQMTQSPSSLSASVGDRVTITCRASQSVSSAVAWYQQKPGKAPKLLIYSASSLYSGVPSRFSGSRSGTDFTLTISSLQPEDFATYYCQQSYSFPSTFGQGTKVEIK | –
– | LS146-scFv (scFv, V domains shown, VH of LS146; (Gly4Ser)4 linker, written out; VL of LS146; The His10 tag is cleavable by TEV protease; also called LS146 formatted as a single chain Fv; crystal LS146-scFv; source: CHO-S XE cells; purification in Supplementary Methods) VH: EVQLVESGGGLVQPGGSLRLSCAASGFAISASSIHWVRQAPGKCLEWVASIDPETGETLYAKSVAGRFTISADTSKNTAYLQMNSLRAEDTAVYYCARAYAGDGVYYADVWGQGTLVTVSS VL: DIQMTQSPSSLSASVGDRVTITCRASQSVSSAVAWYQQKPGKAPKLLIYSASSLYSGVPSRFSGSRSGTDFTLTISSLQPEDFATYYCQQSYSFPSTFGCGTKVEIK | fold lower potency than the Fab form (LS146 Fab) (Keap1 [2]): 3 fold
– | LS146-scFv (scFv, VH of LS146-scFv; (Gly4Ser)4 linker; VL of LS146-scFv; two residues between VL and the TEV site; also called scFv-LS146; source: CHO-S XE cells, transiently transfected, purified (HisTrap excel, His tag removed, HisTrap flow-through, Superdex 75); not shown: His10 (after a TEV protease cleavage site), C-terminal, cleaved) scFv: EVQLVESGGGLVQPGGSLRLSCAASGFAISASSIHWVRQAPGKCLEWVASIDPETGETLYAKSVAGRFTISADTSKNTAYLQMNSLRAEDTAVYYCARAYAGDGVYYADVWGQGTLVTVSSGGGGSGGGGSGGGGSGGGGSDIQMTQSPSSLSASVGDRVTITCRASQSVSSAVAWYQQKPGKAPKLLIYSASSLYSGVPSRFSGSRSGTDFTLTISSLQPEDFATYYCQQSYSFPSTFGCGTKVEIKRT | IC50 (Kelch domain of Keap1): 79 nM
binds | G55 (antibody, V domains shown) VH: EVQLVESGGGLIRPGGSLRLSCKGSGFIFENFGFGWVRQGPGKGLEWVSGTNWNGGDSRYGDSVKGRFTISRDNSNNFVYLQMNSLRPEDTAIYYCARGTDYTIDETGERYQGSGTFWYFDVWGRGTLVTVSS VL: EIVLTQSPDTLSLSPGERATLSCRASQSVHSRYFAWYQHKPGQPPRLLIYGGSTRATGIPNRFSAGGSGTQFTLTVNRLEAEDFAVYYCQQYGASPYTFGQGTKVEIR | –
binds | G56 (antibody, V domains shown) VH: EVQLVESGGGLIRPGGSLRLSCKGSGFIFENFGFGWVRQGPGKGLEWVSGTNWNGGDSRYGDSVKGRFTISRDNSNNFVYLQMNSLRPEDTAIYYCARGTDYTIDETGERAQGSGTFWYFDVWGRGTLVTVSS VL: EIVLTQSPATLSVSPGERATLSCRASQNVHPRYFAWYQQKRGQSPRLLIHSGSTRAAGIADRFSGGGSGMHFTLTITRVEPEDFAVYFCQQYGGSPYTFGQGTRVELR | –
